Assay [1] deals with GCN4-PP, double proline mutant of the GCN4 leucine zipper, fused to the α fragment of β-lactamase (E. coli (plasmid pBR322)) (UniProt P03069). The assay can be described thus: cell-based or functional assay.
Assay [2] addresses GCN4 leucine zipper (wild-type) fused to the α fragment of β-lactamase (E. coli (plasmid pBR322)) (UniProt P03069). Description: cell-based or functional assay.

As to “scFv-GCN4 fused to the ω fragment of β-lactamase (pDMB-P1-ωBLA construct)”, the results for the MBC (minimum bacteriocidal concentration) on ampicillin, fold over the α-Jun negative control in assay [1] and in assay [2] were 16 fold and 2 fold, respectively.
